Experimental data from patent US20260263645A1 (published 2026).

Biological target: TGFβ1 (UniProt P01137 279-390)
Test: radioligand plate binding; 89Zr-labeled

Sequence of TGFβ1 (P01137 279-390): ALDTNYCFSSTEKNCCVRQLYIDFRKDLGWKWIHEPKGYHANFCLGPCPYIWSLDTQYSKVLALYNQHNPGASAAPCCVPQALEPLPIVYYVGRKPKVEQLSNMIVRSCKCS

- Kd: 66 nM
B1: Fresolimumab (antibody, V domains shown)
VH: QVQLVQSGAEVKKPGSSVKVSCKASGYTFSSNVISWVRQAPGQGLEWMGGVIPIVDIANYAQRFKGRVTITADESTSTTYMELSSLRSEDTAVYYCASTLGLVLDAMDYWGQGTLVTVSS
VL: ETVLTQSPGTLSLSPGERATLSCRASQSLGSSYLAWYQQKPGQAPRLLIYGASSRAPGIPDRFSGSGSGTDFTLTISRLEPEDFAVYYCQQYADSPITFGQGTRLEIKR
